# Bridge positions count the residues as written; N and C are the ends. * marks the point of attachment. Biotin = O=C1N[C@H]2[C@H](CS[C@H]2CCCCC(=O)*)N1
# What was measured:
# [1] = molecular target: T1, recombinant human LRP1 cluster II (R&D Systems, amino acids 786-1165, with C-terminal Fc tag) (human, UniProt Q07954 786-1165); assay: solid phase binding assay, LRP1 cluster II-Fc coated on plate
# T1 construct: range 786-1165; Bought from R&D Systems; coated on plates; also called LRP1-C2; not shown: C-terminal Fc tag of the bought protein
# T1 sequence (looked up): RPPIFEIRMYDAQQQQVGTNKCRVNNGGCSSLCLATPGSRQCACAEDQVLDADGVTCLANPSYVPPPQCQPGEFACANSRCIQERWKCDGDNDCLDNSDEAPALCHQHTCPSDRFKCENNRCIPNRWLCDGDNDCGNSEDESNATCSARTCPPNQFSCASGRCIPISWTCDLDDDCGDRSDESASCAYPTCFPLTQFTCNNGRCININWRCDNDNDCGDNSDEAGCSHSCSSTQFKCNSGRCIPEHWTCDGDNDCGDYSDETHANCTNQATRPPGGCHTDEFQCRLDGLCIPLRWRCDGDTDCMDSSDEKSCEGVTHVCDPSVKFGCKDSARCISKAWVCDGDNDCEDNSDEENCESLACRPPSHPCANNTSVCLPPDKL
# Method: Control wells contained no added inhibitor. Wells were washed with TBS supplemented with 5 mM CaCl₂ and 0.05% Tween-20. […] Excess HRP conjugate was removed and wells washed. Color was developed using TMB reagents (BioRad, Hercules, Calif.).
# LRP2 CR89 [2] = molecular target: T2, LRP2 CR89 (UniProt P98164 1025-1102, limits assumed); assay: solid-phase binding, OD at highest concentration against highest OD of all ligands
# T2 construct: domain: CR89
# LRP1 CR3-5 [3] = molecular target: T3, LRP1 CR3-5 (UniProt Q07954 852-973, limits assumed); assay: as above
# T3 construct: domain: CR3-5; also called LRP1 CR domains
# LRP2 CR89 [4] = molecular target: T2, LRP2 CR89; assay: binding titration on LRP2 CR89, absorbance against nM of ligand
# LRP1 CR3-5 [5] = molecular target: T3, LRP1 CR3-5; assay: solid-phase binding (OD), single-site non-linear regression
# LRP1 CR3-5 [6] = molecular target: T3, LRP1 CR3-5; assay: binding titration on LRP1 CR3-5, absorbance against nM of ligand
# LRP2 CR89 [7] = molecular target: T2, LRP2 CR89; assay: solid-phase binding (OD), single-site non-linear regression
# T2 sequence (P98164 1025-1102 limits assumed): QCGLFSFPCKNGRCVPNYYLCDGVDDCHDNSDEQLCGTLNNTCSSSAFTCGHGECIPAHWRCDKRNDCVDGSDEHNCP
Binder,Kd [1] [nM],% max (percent of maximum binding) (LRP2 CR89 [2]) [%],% max (percent of maximum binding) (LRP1 CR3-5 [3]) [%],binding result (LRP2 CR89 [4]),Kd (LRP1 CR3-5 [5]) [nM],binding result (LRP1 CR3-5 [6]),Kd (LRP2 CR89 [7]) [nM]
"mRAP-14c (disulfide 6-65, Cysteines at both ends are meant for cyclization by a disulfide bond) peptide: Biotin-GGSGGCEAKIEKHNHYQKQLEIAHEKLRHAESVGDGERVSRSREKHALLEGRTKELGYTVKKHGC",~21,–,–,–,–,–,–
"RAP d3 (ligand, also called recombinant RAP d3) GLDRLRRVSHQGYSTEAEFEEPRVIDLWDLAQSANLTDKELEAFREELKHFEAKIEKHNHYQKQLEIAHEKLRHAESVGDGERVSRSREKHALLEGRTKELGYTVKKHLQDLSGRISRARHNEL",–,5,76,–,–,–,–
"RAP d3 E251K (ligand, also called RAP E251K) GLDRLRRVSHQGYSTEAEFEEPRVIDLWDLAQSANLTDKELEAFREELKHFKAKIEKHNHYQKQLEIAHEKLRHAESVGDGERVSRSREKHALLEGRTKELGYTVKKHLQDLSGRISRARHNEL",–,5,100,no binding (tested: 100 nM),7,–,–
"MegaRAP1 d3 A256K (ligand, also called MegaRAP1 A256K) GLDRLRRVSHQGYTTEAKFEEPRVIDLWDLAQSANLTDKELEAFREELKYFKAKIEKHNHYQKQLEIAHEELRHAESVGDGERVSRSREKHALLEGRTKELGYTVKKHLQDLSGRISRARHNEL",–,2,6,no binding (tested: 100 nM),–,no binding (tested: 100 nM),–
"MegaRAP1 d3 K251E, E270K (ligand, also called MegaRAP1 K251E, E270K) GLDRLRRVSHQGYTTEAKFEEPRVIDLWDLAQSANLTDKELEAFREELKYFEAKIEAHNHYQKQLEIAHEKLRHAESVGDGERVSRSREKHALLEGRTKELGYTVKKHLQDLSGRISRARHNEL",–,16,16,–,–,–,153
"RAP d3 H249Y (ligand, also called RAP H249Y) GLDRLRRVSHQGYSTEAEFEEPRVIDLWDLAQSANLTDKELEAFREELKYFEAKIEKHNHYQKQLEIAHEKLRHAESVGDGERVSRSREKHALLEGRTKELGYTVKKHLQDLSGRISRARHNEL",–,2,90,no binding (tested: 100 nM),28,–,–
"MegaRAP1 d3 K251E (ligand, also called MegaRAP1 K251E) GLDRLRRVSHQGYTTEAKFEEPRVIDLWDLAQSANLTDKELEAFREELKYFEAKIEAHNHYQKQLEIAHEELRHAESVGDGERVSRSREKHALLEGRTKELGYTVKKHLQDLSGRISRARHNEL",–,11,2,–,–,no binding (tested: 100 nM),–
"RAP d3 E251K, K270E (ligand, also called RAP E251K, K270E) GLDRLRRVSHQGYSTEAEFEEPRVIDLWDLAQSANLTDKELEAFREELKHFKAKIEKHNHYQKQLEIAHEELRHAESVGDGERVSRSREKHALLEGRTKELGYTVKKHLQDLSGRISRARHNEL",–,2,4,–,–,no binding (tested: 100 nM),–
"MegaRAP1 d3 E270K (ligand, also called MegaRAP1 E270K) GLDRLRRVSHQGYTTEAKFEEPRVIDLWDLAQSANLTDKELEAFREELKYFKAKIEAHNHYQKQLEIAHEKLRHAESVGDGERVSRSREKHALLEGRTKELGYTVKKHLQDLSGRISRARHNEL",–,100,85,–,114,–,8
"MegaRAP1 d3 Y249H (ligand, also called MegaRAP1 Y249H) GLDRLRRVSHQGYTTEAKFEEPRVIDLWDLAQSANLTDKELEAFREELKHFKAKIEAHNHYQKQLEIAHEELRHAESVGDGERVSRSREKHALLEGRTKELGYTVKKHLQDLSGRISRARHNEL",–,35,2,–,–,no binding (tested: 100 nM),–
"MegaRAP1 d3 A256K, E270K (ligand, also called MegaRAP1 A256K, E270K) GLDRLRRVSHQGYTTEAKFEEPRVIDLWDLAQSANLTDKELEAFREELKYFKAKIEKHNHYQKQLEIAHEKLRHAESVGDGERVSRSREKHALLEGRTKELGYTVKKHLQDLSGRISRARHNEL",–,73,93,–,4,–,72
"RAP d3 E217K (ligand, also called RAP E217K) GLDRLRRVSHQGYSTEAKFEEPRVIDLWDLAQSANLTDKELEAFREELKHFEAKIEKHNHYQKQLEIAHEKLRHAESVGDGERVSRSREKHALLEGRTKELGYTVKKHLQDLSGRISRARHNEL",–,5,91,no binding (tested: 100 nM),9,–,–
"RAP d3 K256A, K270E (ligand, also called RAP K256A, K270E) GLDRLRRVSHQGYSTEAEFEEPRVIDLWDLAQSANLTDKELEAFREELKHFEAKIEAHNHYQKQLEIAHEELRHAESVGDGERVSRSREKHALLEGRTKELGYTVKKHLQDLSGRISRARHNEL",–,3,2,no binding (tested: 100 nM),–,no binding (tested: 100 nM),–
"MegaRAP1 d3 T213S (ligand, also called MegaRAP1 T213S) GLDRLRRVSHQGYSTEAKFEEPRVIDLWDLAQSANLTDKELEAFREELKYFKAKIEAHNHYQKQLEIAHEELRHAESVGDGERVSRSREKHALLEGRTKELGYTVKKHLQDLSGRISRARHNEL",–,94,2,–,–,no binding (tested: 100 nM),19
"MegaRAP1 d3 (ligand, also called RAPv2A d3; RAP v2) GLDRLRRVSHQGYTTEAKFEEPRVIDLWDLAQSANLTDKELEAFREELKYFKAKIEAHNHYQKQLEIAHEELRHAESVGDGERVSRSREKHALLEGRTKELGYTVKKHLQDLSGRISRARHNEL",–,88,4,–,–,no binding (tested: 100 nM),38
"RAP d3 K270E (ligand, also called RAP K270E) GLDRLRRVSHQGYSTEAEFEEPRVIDLWDLAQSANLTDKELEAFREELKHFEAKIEKHNHYQKQLEIAHEELRHAESVGDGERVSRSREKHALLEGRTKELGYTVKKHLQDLSGRISRARHNEL",–,2,4,no binding (tested: 100 nM),–,no binding (tested: 100 nM),–
"RAP d3 E251K, K256A, K270E (ligand, also called RAP E251K, K256A, K270E) GLDRLRRVSHQGYSTEAEFEEPRVIDLWDLAQSANLTDKELEAFREELKHFKAKIEAHNHYQKQLEIAHEELRHAESVGDGERVSRSREKHALLEGRTKELGYTVKKHLQDLSGRISRARHNEL",–,40,2,–,–,no binding (tested: 100 nM),114
"MegaRAP1 d3 K217E (ligand, also called MegaRAP1 K217E) GLDRLRRVSHQGYTTEAEFEEPRVIDLWDLAQSANLTDKELEAFREELKYFKAKIEAHNHYQKQLEIAHEELRHAESVGDGERVSRSREKHALLEGRTKELGYTVKKHLQDLSGRISRARHNEL",–,88,2,–,–,no binding (tested: 100 nM),25
"mRAP-8c (N-terminal biotin (biotin-GGSGG), Cysteines at both ends are meant for cyclization by a disulfide bond) peptide: GGSGGCGKHFEAKIEKHNHYQKQLEIAHEKLRHAESVGDGERVSRSREKHALLEGRTKELGYTVKKHLQDGC",~4,–,–,–,–,–,–

# From patent publication US20120251444A1 (RAPTOR PHARMACEUTICALS, published 2012)
